Experimental data taken from article PMC314469, “Protein Interaction Networks by Proteome Peptide Scanning” (PLoS Biology, 2004).

Experiments:
[1] = target: T1, BOI2 SH3 domain (Saccharomyces cerevisiae); test: SPR; details: modification not given
T1 chain: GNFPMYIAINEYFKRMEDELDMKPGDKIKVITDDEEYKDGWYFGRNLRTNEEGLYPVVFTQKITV

[2] = target: T2, Abp1 SH3 (ABP1_YEAST), P15891; test: SPOT array
T2 chain: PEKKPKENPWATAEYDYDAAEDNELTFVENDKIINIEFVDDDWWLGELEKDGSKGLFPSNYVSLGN

[3] = target: T3, Boi1 SH3 (BOI1_YEAST), P38041; test: SPOT array
T3 chain: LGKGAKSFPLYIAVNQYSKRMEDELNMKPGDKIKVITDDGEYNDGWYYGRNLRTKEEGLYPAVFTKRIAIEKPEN

[4] = target: T4, Boi2 SH3 (BOI2_YEAST), P39969; test: SPOT array
T4 chain: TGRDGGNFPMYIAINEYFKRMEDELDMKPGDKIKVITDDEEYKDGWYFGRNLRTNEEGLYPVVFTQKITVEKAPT

[5] = target: T5, Myo5 SH3 (MYO5_YEAST), Q04439; test: SPOT array
T5 chain: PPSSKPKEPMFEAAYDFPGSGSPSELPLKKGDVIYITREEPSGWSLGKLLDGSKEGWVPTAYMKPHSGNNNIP

[6] = target: T6, Rvs167 SH3 (RV167_YEAST), P39743; test: SPOT array
T6 chain: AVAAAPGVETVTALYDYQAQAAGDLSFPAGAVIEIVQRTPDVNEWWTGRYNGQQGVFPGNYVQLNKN

[7] = target: Sho1 SH3 (SHO1_YEAST), P40073; test: SPOT array
[8] = target: T7, Yfr024 SH3 (LSB3_YEAST), P43603; test: SPOT array
T7 chain: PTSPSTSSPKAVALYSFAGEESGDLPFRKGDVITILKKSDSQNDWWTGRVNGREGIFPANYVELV

[9] = target: T8, Yhr016c SH3 (YSC84_YEAST), P32793; test: SPOT array
T8 chain: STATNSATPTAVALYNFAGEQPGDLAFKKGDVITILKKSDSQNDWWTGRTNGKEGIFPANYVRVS

Sho1 SH3 (SHO1_YEAST), P40073, sequence (P40073 295-366): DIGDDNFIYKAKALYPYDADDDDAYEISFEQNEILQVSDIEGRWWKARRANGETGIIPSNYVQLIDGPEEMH

| Binder | Kd [1] [µM] | normalised SPOT signal, Boehringer light units (BLU); mean over the file's lines of this peptide [2] | normalised SPOT signal, Boehringer light units (BLU); mean over the file's lines of this peptide [3] | normalised SPOT signal, Boehringer light units (BLU); mean over the file's lines of this peptide [4] | normalised SPOT signal, Boehringer light units (BLU); mean over the file's lines of this peptide [5] | normalised SPOT signal, Boehringer light units (BLU); mean over the file's lines of this peptide [6] | normalised SPOT signal, Boehringer light units (BLU); mean over the file's lines of this peptide [7] | normalised SPOT signal, Boehringer light units (BLU); mean over the file's lines of this peptide [8] | normalised SPOT signal, Boehringer light units (BLU); mean over the file's lines of this peptide [9] |
| --- | --- | --- | --- | --- | --- | --- | --- | --- | --- |
| RGPPPLPPRANVQP | > 100 |  |  |  |  |  |  |  |  |
| GTTNRGPPPLPPRA | > 100 |  |  |  |  |  |  |  |  |
| NAPERAVPILPPRN [YBR108W peptide …] | > 100 |  |  |  |  |  |  |  |  |
| RPKRRAPPPVPKKP [YIR003W 383-396] |  | 80000 | 1170 | 26.1 | 67400 | 1050 | 5190 | 6360 | 114 |
| SKDKKTKPTPPPKP [YNL020C 602-615] |  | 77200 | 353 | 40.8 | 180 | 71.4 | 331 | 211 | 22.7 |
| TIEARVHPEPPNKP [YDR330W 403-416] |  | 36.2 | 0 | 20.8 | 375 | 26.6 | 32.7 | 44.2 | 1 |
| VASSRTEPSTPSRP [YJL095W 1074-1087] |  | 184 | 120 | 10.5 | 178 | 76.3 | 62.9 | 3610 | 602 |
| VKPTKLEPENPQKP [YFL054C 234-247] |  | 42.5 | 49.7 | 8.7 | 91.3 | 28 | 23.8 | 17 | 22.4 |
| YTYSRNEPVIPTKP [YNL139C 1275-1288] |  | 224 | -0 | -0 | 210 | 68.4 | 44.7 | 242 | 15.9 |
| ENTPRPNPTQPRKP [YDR359C 772-785] |  | 102 | 154 | 0 | 137 | 53.6 | 13.1 | 205 | 54.9 |
| EYSPRPSPWLPSKP [YDR151C 76-89] |  | 519 | 184 | 22.4 | 73.7 | 54.8 | 34.7 | 668 | 107 |
| KRNSKHAPFIPVKP [YPR095C 154-167] |  | 1030 | 412 | 37 | 382 | 68.7 | 86.4 | 751 | 150 |
| LKDPKSFPPPPLKP [YBR108W 80-93] |  | 124 | 55.3 | 45.6 | 253 | 78.4 | 78.9 | 62.9 | 6.5 |
| LQESKTVPQSPKKP [YOR058C 189-202] |  | 224 | 22.8 | 15.3 | 159 | 50.4 | 37.8 | 19.6 | 9.2 |
| NGTWKYNPTVPNEL [YPR151C 143-156] |  |  | 72.4 | 24.2 | 173 | 87.9 | 3.7 | 381 | 22.7 |
| NIFQKQLPKMPKEY [YGR252W 122-135] |  |  | 646 | 203 | 276 | 555 | 16700 | 392 | 4960 |
